Source: patent publication US20060177479A1

Target: Notch receptor expressed on rat esophageal epithelial cells (rat)
Test: cell-based or functional assay

Recombinant Rat Jagged-1/Fc chimera (Fc fusion)
Notch/CSL signaling (luciferase/Renilla intensity), immobilized Jagged-1/Fc against Fc control: 10 fold
increase in luciferase activity as compared to Fc control plates, 10 nM Jagged-1/Fc precoat, 24 hours: 4 to 10 fold
